According to patent US20240343799A1:
Positions count from the first letter of the chain named. Blank lines part the entries; values can stand above or below the binder they belong to.

Columns and labels:
huCD79b-N (human) [1] = target: huCD79b-N (human) (UniProt P40259); test: BLI (ForteBio)
huCD79b-N (human) [2] = target: huCD79b-N (human) (UniProt P40259); test: BLI (ForteBio), antibody loaded on sensor, antigen in solution

B2: hz34F1.14 (antibody, V domains shown)
VH: QVQLVQSGAEVKKPGASVKVSCKASGYSFTTYWMNWVRQAPGQGLTWMGMIDPSDSETHYNHLFKDRVTMTVDKSTSTAYMELSSLRSEDTAVYYCTRAIGYWGQGTLVTVSS
VL: DVVMTQSPLSLPVTLGQPASISCKSSLSLLDSEGKTYLNWFQQRPGQSPRPLISLVSKLDSGVPDRFSGSGSGTDFTLKISRVEAEDVGVYYCWQGTHFPLTFGGGTKVEIK
Kd (huCD79b-N (human) [2]): 8.07 nM

B3: A7v14b (antibody, V domains shown)
VH: EVQLVQSGAEVKKPGASVKVSCKASGYTFTTYYMNWVRQAPGQGLEWIGMIDPSDSETHYNQKFQGRATLTVDTSTSTAYLELSSLRSEDTAVYYCSRSLAFWGQGTLVTVSS
VL: DIVMTQTPLSLPVTPGQPASISCKSSQSLLDSDGKTYLNWLLQKPGQSPQSLIYLVSKLDSGVPDRFSGSGSGTDFTLKISRVEAEDVGVYYCWQGTHFPQTFGQGTKVEIK
Kd (huCD79b-N (human) [2]): 8.56 nM

B4: hz11G10.9.p1 (antibody, V domains shown)
VH: QVQLVQSGAEVKKPGASVKVSCKASGYTFTDYWVNWVRQAPGQGLEWMGMIDPSDSETHYNQMFNDRVTMTVDTSTSTVYMELSSLRSEDTAVYYCTRSNYYWGQGTLVTVSS
VL: B3 VL with P12S, D33E, Q101L, Q105G
Kd (huCD79b-N (human) [2]): 3.4 nM

Stronger by Kd (huCD79b-N (human) [2]), values ahead:

Kd (huCD79b-N (human) [1]): 3.1 nM
Kd (huCD79b-N (human) [2]): 3.22 nM
B1: polmab (antibody, human IgG1, kappa, V domains shown)
VH: EVQLVESGGGLVQPGGSLRLSCAASGYTFSSYWIEWVRQAPGKGLEWIGEILPGGGDTNYNEIFKGRATFSADTSKNTAYLQMNSLRAEDTAVYYCTRRVPIRLDYWGQGTLVTVSS
VL: DIQLTQSPSSLSASVGDRVTITCKASQSVDYEGDSFLNWYQQKPGKAPKLLIYAASNLESGVPSRFSGSGSGTDFTLTISSLQPEDFATYYCQQSNEDPLTFGQGTKVEIKR

Kd (huCD79b-N (human) [2]): 0.275 nM
B5: hz38D9B3.11 (antibody, V domains shown)
VH: QVQLVQSGSELKKPGASVKVSCKASGYTFTDYSMHWVRQAPGQGLEWMGWINTETGEPSYADDFKGRFVFSLDTSVSTAYLQISSLKAEDTAVYYCYYGPYWGQGTLVTVSS
VL: EIVLTQSPATLSLSPGERATLSCKASQSVDHDVDSYMDWYQQKPGQAPRLLIYSASNLESGIPARFSGSGSGTDFTLTISSLEPEDFAVYYCQQINEYPYTFGGGTKVEIK
